Experimental data taken from the RNAGym collection of RNA variant scans (doi:10.1073/pnas.2313332121).

B1: TPR t1 (parent)
chain: GACCAAUCUGCCCUCAGAGCUCGAGAACAUCUUCGGAUGCAGAGGAGGCAGGCUUCGGUGGCGCGAUAGCGCCAACGUCCUCAACCUCCAAUGCAUCCCACCACAUGAUGAUGCCUGAAGAGCCUUGGUUUUUUG

Variants of: B1
Test: polymerase ribozyme fitness, log enrichment relative to wild type (log ratio); higher = more active; in vitro selection for triplet polymerase activity
In short: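 Only genotypes with ≥10 input reads and ≥1 read per output were kept after Illumina sequencing of input and output libraries. These libraries were PCR-built, transcribed mutants of each subunit of a heterodimeric triplet polymerase ribozyme, each put through one triplicate in vitro selection round with frozen incubation at −7 °C, gel excision of extended constructs, streptavidin-bead capture and RT-PCR. Fitness is a logarithmic ratio of genotype enrichment to wild-type enrichment, from inverse-variance-weighted replicate averages, with the logarithm in base 2.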

Compared with GACCAAUCUGCCCUCAGAGCUCGAGAACAUCUUCGGAUGCAGAGGUGGCAGGCUUCGGUGGCGCGCUAGCGCCAACGUCCUCAACCUCCAAUGCAUCCCACCACAUGAUGAUGCCUGAAGAGGAUUGGUUUUUUG, GACCAAUCUGCCCUCAGAGCUCGAGAACAUCUUCGGAUGCAGAGGUGGCAGGCUUCGGUGGCGCGGUAGCGCCAACAUCCUCAACCUCCAAUGCAUCCCACCACAUGAUGAUGCCUGAAGAGCCUUGGUUUUUUG is lower in “polymerase ribozyme fitness (log ratio)” value: 0.0849 for the first, -1.99 for the second.

Going from GACCAAUCUGCCCUCAGAGCUCGAGAACAUCUUCGGAUGCAGAGGUGGCAGGCUUCGGUGGCGCGAUAGCGCCUACGUCCUCAACCUCCAGUGCAUCCCACCACAUGAUGAUGCCUGAAGAGCCUUGGUUUUUUG to GACCAAUCUGCCCUCAGAGCUCGAGAACAUCUUCGGAUGCAGAGGUGGCAGGCUUCGGUGGCGCGAUAGCGCCAACGUCCUCAACCUCCCAUGCAUCCCACCACAUGAUGAUGCCUGAAGAGCCUUGGUUUUAUG, the “polymerase ribozyme fitness (log ratio)” value rises from -3.52 to -1.74.

Going from GACCAAUCUGCCCUCAGAGCUCGAGAACAUCUUCGGAUGCAGAGGUGGCAGGCUUCGGUGGCGCGAUAGCGCCAACGUCCUCAACCUCCAGUGCAUCCCACCACAUGAUGAUGCCUGAAGAGGCUUGGUUUUUUG to GACCAAUCUGCCCUCAGAGCUCGAGAACAUCUUCGGAUGCAGAGGUGGCAGGCUUCGGUGGCGCGAUAGCGCCAACGUCCUCAACCUCCAAUGCAUCCCACCCCAUGAUGAUGCGUGAAGAGCCUUGGUUUUUUG, the “polymerase ribozyme fitness (log ratio)” value falls from -1.65 to -6.95.

Going from GACCAAUCUGCCCUCAGAGCUCGAGAACAUCUUCGGAUGCAGAGGUGGCAGGCUUCGGUGGCGCGAUAGCGCCAACGUCCUCAACCUCCAAUGCAUCCCACCACAUGAUGCUGCCUGAAGAGCGUUGGUUACUUG to GACCAAUCUGCCCUCAGAGCUCGAGAACAUCUUCGGAUGCAGAGGUGGCAGGCUUCGGUGGCGCGAUAGCGCCAACGUCCUCAACCUCCAAUGCAUCCCACCACAUGAUGAUGCCUGAAGUGCCUUGGUUUUUUG, the “polymerase ribozyme fitness (log ratio)” value rises from -0.582 to 0.389.

Going from GACCAAUCUGCCCUCAGAGCUCGAGAACAUCUUCGGAUGCAGAGGUGGUAGGCUUCGGUGGCGCGAUAGCGCCAACGUCCUCAACCUCCAAUGCAUCCCACCACAUGAUGAUGCCUGAAGAGCCUUGGUUUUUUG to GACCAAUCUGCCCUCAGAGCUCGAGAACAUCUUCGGAUGCAGAGGUGGUAGGCUUCGGUGGCGCGAUAGCGACAACGUCCUCAACCUCCAAUGCAUCCCACCACAUGAUGAUGCCUGAAGCGCCUUGGUUUUUUG, the “polymerase ribozyme fitness (log ratio)” value rises from -1.49 to 0.996.

First: GACCAAUCUGCCCUCAGAGCUCGAGAACAUCUUCGGAUGCAGAGGUGGCAGGUUUCGGUGGCGCGAUAGCGCCAACGUCCUCACCCUUCAAUGCAUCCCACCACAUGAUGAUGCCUGAAGAGCCUUGGUUUUUUG
Second: GACCAAUCUGCCCUCAGAGCUCGAGAACAUCUUCGGAUGCAGAGGUGGCAGGUUUCGGUGGCGCGAUACCGCCAACGUCCUCAACCCCCAAUGCAUCCCACCACAUGAUGAUGCCUGAAGAGCCUUGGUUUUUUG
The “polymerase ribozyme fitness (log ratio)” value of the first is higher: -1.14 for the first, -2.13 for the second.

Compared with GACCAAUCUGCCCUCAGAGCUCGAGAACAUCUUCGGAUGCAGAGGUGGCAGGCUUAGGUGGCGCGAUAGCGCCAACGUCCUCAACCUCCAAUGCAUCCCACCACAUGAUGAUGCCUGAAGAGCCUUGGUUUUUUG, GACCAAUCUGCCCUCAGAGCUCGAGAACAUCUUCGGAUGCAGAGGUGGCAGGCUUUGGUGGCGCGAUAGCGCCAACGUCCUCAACCUCCAAUGCAUCCCACCACAUGAUGAUGACUGAAGAGCCUUGGUUUUUUG is lower in “polymerase ribozyme fitness (log ratio)” value: -1.15 for the first, -2.28 for the second.

First: GACCAAUCUGCCCUCAGAGCUCGAGAACAUCUUCGGAUGCAGAGGUGGCAGGCUUCGGUGGGGCGAUAGCGCCAACGUCCUCAACCUACAAUGCAUCCCACCACAUGAUGAUGCCUGAAGAGCAUUGGUUUUUUG
Second: GACCAAUCUGCCCUCAGAGCUCGAGAACAUCUUCGGAUGCAGAGGUGGCAGGCUUCGGUGGGGCGAUAGCGCCAACGUCCUCAACCUACAAUGCAUCCCACCACAUGAUGAUGCCUGAAGAGCAUUGGUUUUGUG
The “polymerase ribozyme fitness (log ratio)” value of the first is lower: -4.36 for the first, -4.11 for the second.

First: GACCAAUCUGCCCUCAGAGCUCGAGAACAUCUUCGGAUGCAGAGGUGGCAGGCUUCGGUGGCGUGAUAGCGCCAACGUCCUCAACCUCCUAUGCAACCCACCACAAGAUGAUGCCUGAAGAGCCUUGGUUAUUUG
Second: GACCAAUCUGCCCUCAGAGCUCGAGAACAUCUUCGGAUGCAGAGGUGGCAGGCUUCGGUGGCGUGAUAGCGCCAACGUCCUCAACCUCCAAUGCAUCCUACCACAUGAUGAUGCCUGAAGAGCCUUGGUUUUUUG
The “polymerase ribozyme fitness (log ratio)” value of the first is higher: -3.76 for the first, -4.36 for the second.

First: GACCAAUCUGCCCUCAGAGCUCGAGAACAUCUUCGGAUGCAGAGGUGGCAGGCUUCGGUGGCGCGAUAGAGCCAACGUCCUCAAUCUCCAAUGCAUCCCACCACAUGAUGAUGCCUGAAGAGCCUUGGUUUUUUG
Second: GACCAAUCUGCCCUCAGAGCUCGAGAACAUCUUCGGAUGCAGAGGUGGCAGGCUUCGGUGGCGCGAUAGGGCCAACGUCCUCAACCUCCAAUGCAUCCCACCACAUGAUGAUGCCUGAAGAGCCUUGGUUUUUUG
The “polymerase ribozyme fitness (log ratio)” value of the first is higher: -3.76 for the first, -4.75 for the second.

In the case of GACCAAUCUGCCCUCAGAGCUCGAGAACAUCUUCGGAUGCAGAGGUGGCAGGCUUCGGUGGCGCGAUAGGGCCAACGUCCUCAAUCUCCAAUGCAUCCCACCAGAUGAUGAUGCCUGAAGAGCCUUGGUUUUUUG, the “polymerase ribozyme fitness (log ratio)” value is reported as -7.09.
